Experiments:
Type in all cases: physicochemical
[1] = CD thermal unfolding of GCN4-p1 coiled-coil peptides
Procedure: Circular Dichroism (CD) Analysis. CD spectra were recorded on an Aviv 62DS spectropolarimeter (Lakewood, N.J.) in PBS buffer, pH 7.4. All peptide concentrations were determined by amino acid analysis of a stock solution (5 mg/ml). Experiments were performed in a rectangular cell with pathlength of 1 cm for low concentration samples and pathlength of 1 mm for high concentration samples. Spectra were scanned from 250 nm to 200 nm with data taken every 1 nm. The temperature of the solution was maintained by a thermostatically controlled cuvette holder (HP model 89101A). Temperature scans were performed from 0° C. to 100° C. in 1° C. steps. Three scans were performed on a single sample and averaged. Each data point was collected after 30 seconds of thermal equilibration at the desired temperature. Urea titration scans were performed manually starting with the 8 M concentrated sample followed by serial dilution to the desired urea concentration. At each concentration, the sample was allowed to equilibrate for 5 min before recording the CD signal.
The analysis of CD thermal melting data was performed according to a previously described procedure using a two-state model (Schneider, J. P.; Lear, J. D.; DeGrado, W. F. J. Am. Chem. Soc. 1997, 119, 5742-5743). Temperature-dependent ellipticity data for each protein at different concentrations were fitted globally using a non-linear least-squares fitting procedure supplied with the Origin 6.0 software. For wild-type A1, the concentrations used for curve fitting were 10 and 100 μM, while 2 and 100 μm were used to fit data for the 92% fluorinated A1. The thermodynamic quantities Tm, ΔHm, ΔCp and Kd were parameters of the fitting procedure and are reported in the 1 M standard state. The free energy of folding at any temperature is given by equation 1. ΔG°=ΔHm(1−T/Tm)−ΔCp((Tm−T)+T1n(T/Tm) (1)
The thermal stabilities of the coiled-coil dimers of Leu-GCN4-p1 and Tfl-GCN4-p1 were examined by CD spectroscopy (FIG. 2B). A significant increase in the thermal stability of Tfl-GCN4-p1 as compared to Leu-GCN4-p1 is reflected in an elevation of the thermal denaturation temperature from 48° C. to 61° C. The 13° C. increase in Tm is remarkable in view of the fact that no increase in the thermal stability of GCN4-p1 has been reported based solely on substitution of the leucine residues at the d-positions. […] As expected for a monomer-dimer equilibrium, the denaturation curves depend on the peptide concentrations, and their midpoints shift to higher temperature as the concentrations of peptides are increased (FIG. 2C). The thermodynamic changes associated with the transition (folded dimer to unfolded monomers) is calculated from the melting curves by fitting the data to a monomer-dimer equilibrium (J. P. Schneider, J. D. Lear and W. F. DeGrado, J. Am. Chem. Soc. 119, 5742, 1997). Global analysis of the thermal unfolding curves at two different concentrations, approximately 85 μM and 3 μM, gave a calculated ΔH° of 60.2 kcal mol^−1, Tm of 385.4 K and ΔCp of 530 cal mol^−1 K^−1 for Tfl-GCN4-p1 (1 M standard state); the corresponding values for Leu-GCN4-p1 are 70.3 kcal mol^−1, 365.6 K and 740 cal mol^−1 K^−1 respectively.

[2] = Sedimentation equilibrium ultracentrifugation (aggregation state); conditions: concentration range approximately 10 μM-40 μM
Procedure: Ultracentrifugation. Sedimentation equilibrium analysis of the wild type proteins GCN4-p1 and A1 and the corresponding artificial proteins containing the non-natural amino acids was performed using a Beckman XLI analytical ultracentrifuge, recording interference data and radial absorbance at 236 and 280 nm at the same time. […] The samples were centrifuged at 35000, 40000, 45000 rpm, until equilibrium was reached. Partial specific volumes were calculated by the residue-weighted average method of Cohn and Edsall (Harding, S. E.; Rowe, A. J.; Harton, J. C. Analytic Ultracentrifugation in Biochemistry and Polymer Science; The Royal Society for Chemistry: Cambridge, 1992). Solution densities were estimated using solute concentration-dependent density tables in the CRC Handbook of Chemistry and Physics. The data were fit as single species to provide an estimate of the aggregation states. Curve fitting of analytical ultracentrifuge data was done using Igor Pro (Wavemetrics Inc., Oswego WS) with procedures adapted from Brooks et al. (Brooks, I. S.; Soneson, K. K.; Hensley, P. Biophys. J. 1993, 64, 244) by Dr. James D. Lear.
Secondary structures of wild type polypeptide Leu-GCN4-p1 and the corresponding artificial polypeptide Tfl-GCN4-p1 were analyzed by circular dichroism (CD). […]

[3] = Guanidine hydrochloride (GuHCl) titration monitored by CD at 222 nm; conditions: at each temperature examined; 30 μM peptide
Procedure: The difference in the ability to these molecules to resist denaturation is examined at 30° C. (open symbols) and 50° C. (closed symbols). The ellipticity is monitored at 222 nm and with a peptide concentration of 30 μM. Insert: GuHCl titration midpoint concentration, as defined by the concentration of GuHCl that is needed to denature 50% of the peptides, are plotted as a function of temperature, as described in Examples 5.

[4] = global analysis of thermal unfolding curves, 1 M standard state

Tfl-GCN4-p1: fluorinated GCN4-p1 leucine zipper peptide with trifluoroleucine at the four d-positions
increase in Tm compared to Leu-GCN4-p1 ([1]; CD spectroscopy): 13 °C
thermal denaturation temperature (Tm) ([1]; CD spectroscopy, coiled-coil dimers): 61 °C
ΔH° ([1]; global analysis of thermal unfolding curves at approximately 85 μM and 3 μM, 1 M standard state): 60.2 kcal/mol
Tm [1, 4]: 112.2 °C
ΔCp [1, 4]: 530 cal mol^−1 K^−1
fraction dimeric [2]: approximately 85%
concentration of GuHCl needed to unfold 50% of the peptide, versus wild-type peptide [3]: higher

— patent US7449443B2, “Method for stabilization of proteins using non-natural amino acids” (California Institute of Technology, priority 2000, dated 2008)
